Source: the supplement of paper PMC10567573

B1: CSTF3 (parent)
chain: YVPEKVKKAEKKLEENPYDLDAWS
B2: ZNF263 (parent)
chain: RTHTGEKPYKCTLCGENFSHRSNL

Variants of: B1
Test: protein stability index of a GFP-peptide fusion (GPS, HEK-293T) (PSI 1-6); higher = more stable
Conditions: c terminus: a fixed tail appended
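Note: lentivirally expressed fusions sorted by FACS into six bins by GFP to DsRed ratio, PSI derived from sequencing read proportions per bin multiplied by bin number.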

Protein stability index of substitutions, site by site:
E15: T 1.58, V 3.54, W 2.8, Y 3.42
N16: A 2.04, C 1.67, D 2.73, E 3.13, F 3.03, G 2.54, I 1.05, K 3.09, L 3.68, M 1.81, P 1.67, Q 2.24, R 2.64, S 2.65, T 2.27, W 2.08, Y 2.56
P17: A 2.45, C 2.34, D 3.55, E 2.63, F 1.95, G 2.39, H 2.04, I 2.32, K 1.32, L 3.01, M 2.48, N 2.52, Q 1.22, R 2.29, S 2.37, T 3.18, V 1.43, W 2.5, Y 2.43
Y18: A 2.62, C 2.88, D 5.04, E 1.93, F 2.55, G 2.35, H 2.12, I 2.47, K 3.33, L 2.15, M 2.58, N 2.38, P 2.71, Q 2.17, R 2.77, S 2.46, T 2.27, V 1.45, W 1.61
D19: A 2.2, E 2.57, G 3.95, H 1.58, I 2.28, K 3.97, L 1.62, M 2.14, N 2.54, P 2.59, Q 3.34, R 2.04, S 2.91, T 2.34, W 2.98, Y 2.69
L20: A 2.54, C 2.71, D 1.73, E 1.76, F 1.44, G 2.15, H 2.84, I 1.97, K 1.96, M 1.91, P 2.23, Q 2.79, R 2.9, S 2.24, T 3.25, V 3.2, W 1.55, Y 2.13
D21: A 2.98, E 3.37, F 2.63, G 2.66, H 2.43, I 3.3, L 1.99, M 3.19, N 4.07, P 1.43, Q 2.86, R 2.03, S 2.21, V 1.83, W 2.24, Y 2.19
A22: C 2.59, D 1.67, E 2.29, F 1.8, G 2.4, H 3.16, I 2.39, K 1.36, L 3.05, M 2.48, N 2.26, P 2.47, Q 2.98, R 2.65, S 2.38, T 1.88, V 3.55, W 2.73, Y 2.36
W23: A 1.81, C 2.38, D 1.91, E 1.28, F 3.27, G 3.81, H 1.95, I 2.37, K 1.84, L 2.93, M 3.05, N 3.51, P 3.22, Q 1.79, R 2.81, S 2.6, T 2.64, V 2.38, Y 1.77
S24: A 3.55, C 3.61, D 2.21, E 1.36, F 2.83, G 3.98, H 1.95, I 1.86, K 2.79, L 3.1, M 2.15, N 2.26, P 2.56, Q 2.23, R 2.02, T 2.81, V 2.85, W 1.66, Y 3.69

Variants of: B2
Test: as above
Conditions: c terminus: a fixed tail appended

Protein stability index of substitutions, site by site:
R1: A 2.03
